From PMC4150777 (Nucleic Acids Research, 2014) come the findings set out here.

First the molecules themselves.
B2: Shewanella oneidensis MR-1 HipBso (SO0705) (natural protein, UniProt Q8EIX4 1-78, looked up)
chain: MASPLNQQSLGLLIKERRKSAALTQDVAAMLCGVTKKTLIRVEKGEDVYISTVFKILDGLGIDIVSAQTSDTETNGWY

The target in one data set is T1, HipBso (Shewanella oneidensis MR-1, UniProt PDB:4PU3_2 1-118).
T1 sequence: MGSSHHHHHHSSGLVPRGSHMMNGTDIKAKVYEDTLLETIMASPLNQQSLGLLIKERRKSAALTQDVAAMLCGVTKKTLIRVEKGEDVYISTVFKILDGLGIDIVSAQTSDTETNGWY
The experiment in a line: ITC. On the technique in general: In ITC the heat of successive injections is recorded.

Data set [1] has as its target T2, HipAso D306Q active site mutant (non-phosphorylated) (Shewanella oneidensis MR-1, UniProt Q8EIX3 1-433, D306Q).
T2 sequence: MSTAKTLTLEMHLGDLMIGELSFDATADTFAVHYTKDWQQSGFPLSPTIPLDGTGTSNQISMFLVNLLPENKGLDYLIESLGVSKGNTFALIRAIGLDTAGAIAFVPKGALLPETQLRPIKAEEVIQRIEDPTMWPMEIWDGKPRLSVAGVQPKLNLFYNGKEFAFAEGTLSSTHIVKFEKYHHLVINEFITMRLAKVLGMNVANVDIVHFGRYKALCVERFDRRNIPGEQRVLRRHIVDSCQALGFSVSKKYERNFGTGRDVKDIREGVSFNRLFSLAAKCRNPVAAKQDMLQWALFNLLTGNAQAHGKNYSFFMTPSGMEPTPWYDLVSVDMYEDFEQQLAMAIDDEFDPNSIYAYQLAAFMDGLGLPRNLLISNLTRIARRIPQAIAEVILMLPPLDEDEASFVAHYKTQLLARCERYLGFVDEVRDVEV
Briefly: ITC.

The data set “SEC” deals with the molecule itself. Briefly: SEC.
The target in data set [2] is B2. Briefly: ITC.

For orientation: Kd means the constant that tells how readily two partners part at equilibrium. High values mean weaker binding, low ones tighter binding. By stoichiometry N is commonly meant the number of molecules, sites or subunits per partner or assembly.

B1: hipBAso operator DNA (26 bp) (dsDNA)
DNA 1: ATTAGGTGTACTTATCTACACTTTTT
DNA 2: AAAAAGTGTAGATAAGTACACCTAAT
On to B1, for which, in the data set with HipBso, binding was characterised by a dissociation constant (Kd) of 290 nM. Take B2: the Kd in data set [1] stood at 300 nM. Also, in the data set “SEC”, the “stoichiometry N” value amounted to 2.

B3: Shewanella oneidensis MR-1 HipAso (SO0706), recombinant wild type (enzyme)
chain: MSTAKTLTLEMHLGDLMIGELSFDATADTFAVHYTKDWQQSGFPLSPTIPLDGTGTSNQISMFLVNLLPENKGLDYLIESLGVSKGNTFALIRAIGLDTAGAIAFVPKGALLPETQLRPIKAEEVIQRIEDPTMWPMEIWDGKPRLSVAGVQPKLNLFYNGKEFAFAEGTLSSTHIVKFEKYHHLVINEFITMRLAKVLGMNVANVDIVHFGRYKALCVERFDRRNIPGEQRVLRRHIVDSCQALGFSVSKKYERNFGTGRDVKDIREGVSFNRLFSLAAKCRNPVAAKQDMLQWALFNLLTGNADAHGKNYSFFMTPSGMEPTPWYDLVSVDMYEDFEQQLAMAIDDEFDPNSIYAYQLAAFMDGLGLPRNLLISNLTRIARRIPQAIAEVILMLPPLDEDEASFVAHYKTQLLARCERYLGFVDEVRDVEV
In the case of B3, in data set [2], the “stoichiometry N” value amounted to 2 HipAso per HipBso dimer.
